Experimental data taken from paper PMC5737657.

Tests used:
[1] = target: T1, VapB26 antitoxin (ITC/EMSA) (Mycobacterium tuberculosis, UniProt O53778 1-71); experiment: EMSA
[2] = target: T1, VapB26 antitoxin (ITC/EMSA); experiment: ITC
[3] = target: T1, VapB26 antitoxin (ITC/EMSA); experiment: ITC; remark: listed apart in the source
[4] = target: His6-VapB26 antitoxin (NMR) (Mycobacterium tuberculosis, UniProt O53778 1-71); experiment: NMR
Chain of His6-VapB26 antitoxin (NMR) (O53778 whole entry): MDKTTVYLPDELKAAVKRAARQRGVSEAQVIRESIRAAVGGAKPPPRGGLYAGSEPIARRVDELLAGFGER

T1 sequence (O53778 whole entry): as above

B1: palindromic DNA 'a' (dsDNA)
DNA 1: TATTTTAATAACTTAAAAGT
DNA 2: ACTTTTAAGTTATTAAAATA
B1: no binding [1].

B2: vapBC26 promoter DNA (19 bp) (dsDNA)
DNA 1: TTCGCGGCTACGCCGACAA
DNA 2: TTGTCGGCGTAGCCGCGAA
For B2, the Kd [2] was 4.69 ± 0.81 µM.

B3: control DNA 'X' (dsDNA)
DNA 1: GATTTTTTTTGATTTTTTT
DNA 2: AAAAAAATCAAAAAAAATC
B3: no binding [3]; no binding [4].

B4: palindromic DNA 'b' (dsDNA)
DNA 1: TAATAGAATAATAAGTATCACTCCTTTA
DNA 2: TAAAGGAGTGATACTTATTATTCTATTA
B4: no binding [1].
